Source: article PMC9463231 (2022)

What was measured:
Assay in all cases: SPR
[1] = target: T1, biotinylated mouse FcγRIV (mouse, UniProt A0A0B4J1G0 21-203, biotin)
T1 chain: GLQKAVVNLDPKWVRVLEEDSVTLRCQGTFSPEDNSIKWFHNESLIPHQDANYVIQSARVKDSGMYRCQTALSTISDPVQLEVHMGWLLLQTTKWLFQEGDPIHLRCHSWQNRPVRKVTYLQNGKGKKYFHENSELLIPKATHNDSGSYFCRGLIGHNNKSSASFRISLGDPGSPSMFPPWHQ

[2] = target: T2, biotinylated mouse FcγRI (mouse, UniProt P26151 25-297, biotin)
T2 chain: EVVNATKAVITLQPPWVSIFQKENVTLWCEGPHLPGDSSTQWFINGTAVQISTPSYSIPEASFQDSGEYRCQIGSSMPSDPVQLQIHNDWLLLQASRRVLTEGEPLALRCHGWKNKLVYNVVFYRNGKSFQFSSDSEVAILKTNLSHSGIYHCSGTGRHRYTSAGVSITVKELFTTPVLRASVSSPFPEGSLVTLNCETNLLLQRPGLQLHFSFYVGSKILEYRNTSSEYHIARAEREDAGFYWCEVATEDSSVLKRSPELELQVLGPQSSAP

[3] = target: T3, His-tagged mouse FcγRIII (mouse, UniProt P08508 31-261)
T3 chain: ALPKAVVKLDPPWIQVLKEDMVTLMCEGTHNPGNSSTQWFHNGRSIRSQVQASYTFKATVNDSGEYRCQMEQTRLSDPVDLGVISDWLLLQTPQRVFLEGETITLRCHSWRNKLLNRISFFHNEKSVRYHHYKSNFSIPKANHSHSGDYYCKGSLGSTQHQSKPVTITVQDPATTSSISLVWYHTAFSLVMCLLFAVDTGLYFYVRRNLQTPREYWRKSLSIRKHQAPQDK

B1: Ipilimumab mIgG2a wildtype (anti-human CTLA-4 mIgG2a with an intact Fc domain) (antibody)
chain 1: QVQLVESGGGVVQPGRSLRLSCAASGFTFSSYTMHWVRQAPGKGLEWVTFISYDGNNKYYADSVKGRFTISRDNSKNTLYLQMNSLRAEDTAIYYCARTGWLGPFDYWGQGTLVTVSS
chain 2: not shown
With B1 the Kd [1] was 388 nM, the Kd [2] was 85.8 nM and the Kd [3] was 3690 nM.
